Common to all, as to test: SPR, AAV on CM5 chip
Assay [1] has as its target AAV5 (adeno-associated virus serotype 5).
Assay [2] addresses AAV9 (adeno-associated virus serotype 9).
Assay [3] concerns the target AAV8 (adeno-associated virus serotype 8).

B1: A4-D10 (protein)
chain: VQLQESGGGLAQAGGSLRLSCAASGRGFSINTMGWYRQAPGKQRELVAAVTRGGTTNYADSVKGRFTISRDNAKNTVYLQMNSLRPEDTAVYYCHVDEVRQSSWTTSNLWGQGTQVTVSSGGGGSGGGGSGGGGSVQLQESGGGLVQPGGSLRLSCAASGRAFSINTMGWYRQAPGKQRELVATVTRDGSTNYAGSVKGRFTISRDNAKNTVYLQMNSLRPEDTAVYYCHVDEVRQSSWTTSNLWGQGTQVTVSSGGGGSGGGGSGGGGSVQLQESGGGLVQPGGSLRLSCAASGSIFIINTMGWYRRAPGKQRELVAAVTRGGSTNYADSVKGRFTISRDNAKNTVYLQMNSLRPEDTAVYYCHVDEVRQSSWTTSNLWGQGTQVTVSSGGGGSGGGGSGGGGSVQLQESGGGLVQPGGSLRLSCAASGSIFSINTMGWYRQAPGKQRELVAAVTRGGSTNYADSVKGRFTISRDNAKNTVYLQMNSLRPEDTAVYYCHVDEVRQSSWTTSNLWGQGTQVTVSS
As a reminder, the Kd is the equilibrium constant for the complex coming apart. The low end stands for a tighter complex, the high end for a looser complex. The term koff denotes the rate constant with which the complex falls apart. Lower therefore signals slow dissociation. A word on the kon: it is the rate constant with which the complex forms. A lower kon goes with slower complex formation. For B1, in assay [1], the Kd is 481 pM, the koff is 8.3e-06 s⁻¹ and the kon turned out to be 17300 M⁻¹ s⁻¹. For the same molecule, in assay [2], the Kd amounted to 61.1 pM, the koff worked out at 1.9e-06 s⁻¹ and the kon came out at 31100 M⁻¹ s⁻¹. In assay [3], this molecule displayed a dissociation constant Kd of 542 pM, a koff of 1.66e-05 s⁻¹ and a kon of 30700 M⁻¹ s⁻¹.

B2: A4-D11 (protein)
chain: VQLQESGGGLVQPGGSLRLSCAASGRGFSINTMGWYRQAPGKQRELVAAVTRGGTTNYADSVKGRFTISRDNAKNTVYLQMNSLRPEDTAVYYCHVDEVRQSSWTTSNLWGQGTQVTVSSGGGGSGGGGSGGGGSVQLQESGGGLVQPGGSLRLSCAASGSIFSINTMGWYRQAPGKQRELVAAVTRGGSTNYADSVKGRFTISRDNAKNTVYLQMNSLRPEDTAVYYCHVDEVRQSSWTTSNLWGQGTQVTVSSGGGGSGGGGSGGGGSVQLQESGGGLVQPGGSLRLSCAASGSIFIINTMGWYRRAPGKQRELVAAVTRGGSTNYADSVKGRFTISRDNAKNTVYLQMNSLRPEDTAVYYCHVDEVRQSSWTTSNLWGQGTQVTVSSGGGGSGGGGSGGGGSVQLQESGGGLVQPGGSLRLSCAASGSSFVINTMGWYRQAPGKQRELVAAVTRGGSTNYADSVKGRFTISRDNAKNTVYLQMNSLRPEDTAVYYCHVDEVRQSSWTTSNLWGQGTQVTVSS
For B2, the Kd came to 1150 pM in assay [1], 181 pM in assay [2] and 319 pM in assay [3]. Moreover, the figures for the koff in assay [1], in assay [2] and in assay [3] were 1.4e-05 s⁻¹, 4.8e-06 s⁻¹ and 1.5e-05 s⁻¹, respectively. Besides, the kon came to 12200 M⁻¹ s⁻¹ in assay [1], 26500 M⁻¹ s⁻¹ in assay [2] and 47000 M⁻¹ s⁻¹ in assay [3].

B3: A4-D13 (protein)
chain: VQLQESGGGLVQPGGSLRLSCAASGSIFIINTMGWYRRAPGKQRELVAAVTRGGSTNYADSVKGRFTISRDNAKNTVYLQMNSLRPEDTAVYYCHVDEVRQSSWTTSNLWGQGTQVTVSSGGGGSGGGGSGGGGSVQLQESGGGLVQPGGSLRLSCAASGSIFSINTMGWYRQAPGKQRELVAAVTRGGSTNYADSVKGRFTISRDNAKNTVYLQMNSLRPEDTAVYYCHVDEVRQSSWTTSNLWGQGTQVTVSSGGGGSGGGGSGGGGSVQLQESGGGLAQAGGSLRLSCAASGRGFSINTMGWYRQAPGKQRELVAAVTRGGTTNYADSVKGRFTISRDNAKNTVYLQMNSLRPEDTAVYYCHVDEVRQSSWTTSNLWGQGTQVTVSSGGGGSGGGGSGGGGSVQLQESGGGLVQPGGSLRLSCAASGRAFSINTMGWYRQAPGKQRELVATVTRDGSTNYAGSVKGRFTISRDNAKNTVYLQMNSLRPEDTAVYYCHVDEVRQSSWTTSNLWGQGTQVTVSS
In assay [1], B3 gave a Kd of 701 pM, an off-rate (koff) of 1.31e-05 s⁻¹ and a kon of 18700 M⁻¹ s⁻¹. In assay [2], this molecule had a Kd of 47.1 pM, a koff of 2.6e-06 s⁻¹ and a kon of 55200 M⁻¹ s⁻¹. In assay [3], this molecule registered a Kd of 355 pM, a koff of 6.9e-06 s⁻¹ and a kon of 19400 M⁻¹ s⁻¹.

B4: A4-D12 (protein)
chain: VQLQESGGGLVQPGGSLRLSCAASGSIFSINTMGWYRQAPGKQRELVAAVTRGGSTNYADSVKGRFTISRDNAKNTVYLQMNSLRPEDTAVYYCHVDEVRQSSWTTSNLWGQGTQVTVSSGGGGSGGGGSGGGGSVQLQESGGGLAQAGGSLRLSCAASGRGFSINTMGWYRQAPGKQRELVAAVTRGGTTNYADSVKGRFTISRDNAKNTVYLQMNSLRPEDTAVYYCHVDEVRQSSWTTSNLWGQGTQVTVSSGGGGSGGGGSGGGGSVQLQESGGGLVQPGGSLRLSCAASGRAFSINTMGWYRQAPGKQRELVATVTRDGSTNYAGSVKGRFTISRDNAKNTVYLQMNSLRPEDTAVYYCHVDEVRQSSWTTSNLWGQGTQVTVSSGGGGSGGGGSGGGGSVQLQESGGGLVQPGGSLRLSCAASGSIFIINTMGWYRRAPGKQRELVAAVTRGGSTNYADSVKGRFTISRDNAKNTVYLQMNSLRPEDTAVYYCHVDEVRQSSWTTSNLWGQGTQVTVSS
On to B4, for which, in assay [1], the Kd was determined as 440 pM, the koff was 1.7e-05 s⁻¹ and the on-rate (kon) was 38600 M⁻¹ s⁻¹. In assay [2], this molecule displayed a Kd of 55.5 pM, a koff of 3e-06 s⁻¹ and a kon of 54000 M⁻¹ s⁻¹. In assay [3], the Kd was determined as 262 pM, the dissociation rate constant (koff) was 6.5e-06 s⁻¹ and the kon came to 24800 M⁻¹ s⁻¹.

The values are drawn from US20260193326A1.
